The results in this text go back to PMC2423650 (Journal of Experimental Botany, 2008).

Numbering of substitutions follows the chain as printed.

A word on the Kd: it is the equilibrium constant for the complex coming apart. A high value points to a looser complex. The stoichiometry N is the number of molecules, sites or subunits per partner or assembly.

The data set deals with the molecule itself. Nature of the data set: SEC. In general terms: Size exclusion chromatography separates by hydrodynamic size, large species first.

B1: atToc33-His (G-domain of atToc33, His-tagged) (domain or fragment, Arabidopsis thaliana, UniProt O23680 1-251, looked up)
chain: MGSLVREWVGFQQFPAATQEKLIEFFGKLKQKDMNSMTVLVLGKGGVGKSSTVNSLIGEQVVRVSPFQAEGLRPVMVSRTMGGFTINIIDTPGLVEAGYVNHQALELIKGFLVNRTIDVLLYVDRLDVYRVDELDKQVVIAITQTFGKEIWCKTLLVLTHAQFSPPDELSYETFSSKRSDSLLKTIRAGSKMRKQEFEDSAIAVVYAENSGRCSKNDKDEKALPNGEAWIPNLVKAITDVATNQRKAIHVD
Consider B1, for which the Kd worked out at 400 µM and the “stoichiometry N” value stood at 2.

B2: atToc33S/E-His (phospho-mimicking mutant of the atToc33 G-domain) (domain or fragment, Arabidopsis thaliana, UniProt O23680 1-251, looked up)
chain: B1 chain with S181E
B2: the “fold change of the dissociation constant against atToc33” value was roughly 10 fold and the “stoichiometry N” value worked out at 2.
